Test results from publication PMC3699631, “Posttranslational Modifications of the Histone 3 Tail and Their Impact on the Activity of Histone Lysine Demethylases In Vitro” (PLoS ONE, 2013).

Experiments:
human cc-KDM4C [1] = molecular target: T1, human cc-KDM4C (Homo sapiens, UniProt Q9H3R0); test: FDH-assay enzyme kinetics of H3 peptide demethylation, truncated KDM4C; type: biochemical; conditions: for demethylation / catalytic activity (in words) / K m / k cat / k cat /K m: FDH-assay; for demethylation / catalytic activity (in words): compared to H3(1–24)K9me3 where a change is stated; for K m: 50 mM HEPES (pH 7.5), 50 mM NaCl, 50 µM FeSO4, 500 µM α-KG, 500 µM ascorbate, 2 mM NAD, substrate 10–1000 µM, e.g. 4.88 µM KDM4C, NADH fluorescence 15–30 minutes; for K m / k cat: triplicate; for k cat: pH 7.5, NADH fluorescence; for k cat /K m: pH 7.5, triplicate
T1 construct: Truncated constructs of KDM4A and KDM4C containing only the catalytic cores (cc-KDM4A/cc-KDM4C); made in house
T1 sequence (Q9H3R0 1-349 limits assumed): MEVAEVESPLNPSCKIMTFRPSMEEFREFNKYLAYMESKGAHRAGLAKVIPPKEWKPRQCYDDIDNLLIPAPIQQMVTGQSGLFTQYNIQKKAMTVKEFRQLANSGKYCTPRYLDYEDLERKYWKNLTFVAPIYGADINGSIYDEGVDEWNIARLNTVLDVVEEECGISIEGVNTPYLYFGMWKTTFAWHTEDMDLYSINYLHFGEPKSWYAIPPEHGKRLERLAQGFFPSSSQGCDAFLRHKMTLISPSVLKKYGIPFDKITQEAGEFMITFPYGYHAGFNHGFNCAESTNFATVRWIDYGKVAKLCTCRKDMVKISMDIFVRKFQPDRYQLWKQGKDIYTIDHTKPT
Procedure: (§1) The enzyme kinetics were measured using a Formaldehyde DeHydrogenase Assay (FDH-Assay) and the demethylation of substrates was confirmed when possible by MALDI-TOF-MS, see File S1 for details. The test solution contained 50 mM HEPES (pH 7.5), 50 mM NaCl, 50 µM FeSO4, 500 µM α-KG, 500 µM ascorbate, 2 mM NAD, approximately 0.05 unit of FDH and e.g. 4.88 µM KDM4C (enzyme concentration varied between batches). The reference solution was comprised of the same except substrate. The assay was initiated by adding various concentrations of H3 peptide substrates e.g. H3(1–24)K9me3 (10–1000 µM) and the increase in NADH fluorescence was measured over 15–30 minutes in 30 second intervals. Data analysis and kinetic values were obtained using programs Excel and GraphPad Prism® 5.0. For details, see File S1.
The standard deviations for k cat/K m were calculated using the statistic law of propagation of errors. Standard errors for Michaelis-Menten Kinetics were automatically given in GraphPad Prism®, with a 95% confidence interval. All enzyme kinetic curves were done in triplicate unless otherwise stated.
Test for activity of enzyme using the fluorescence FDH assay, determination of Vmax and Km of enzymes with substrate, expression and purification of cc-KDM4A and cc-KDM4C software and parameters for the FDH coupled assay, see Lohse et al.^21
The standard deviations for kcat/ Km were calculated using the statistic law of propagation of errors. Standard errors for Michaelis-Menten Kinetics were automatically given in GraphPad Prism®, with a 95 % confidence interval. All enzyme kinetic curves were done in triplicate unless otherwise stated.

human cc-KDM4A = molecular target: T2, human cc-KDM4A (Homo sapiens, UniProt O75164); test: competition experiment H3(1–24)K9me3-T11(ph) with H3(1–24)K9me3, truncated KDM4A; type: biochemical
T2 construct: Truncated constructs of KDM4A and KDM4C containing only the catalytic cores (cc-KDM4A/cc-KDM4C); made in house
T2 sequence (O75164 1-350 limits assumed): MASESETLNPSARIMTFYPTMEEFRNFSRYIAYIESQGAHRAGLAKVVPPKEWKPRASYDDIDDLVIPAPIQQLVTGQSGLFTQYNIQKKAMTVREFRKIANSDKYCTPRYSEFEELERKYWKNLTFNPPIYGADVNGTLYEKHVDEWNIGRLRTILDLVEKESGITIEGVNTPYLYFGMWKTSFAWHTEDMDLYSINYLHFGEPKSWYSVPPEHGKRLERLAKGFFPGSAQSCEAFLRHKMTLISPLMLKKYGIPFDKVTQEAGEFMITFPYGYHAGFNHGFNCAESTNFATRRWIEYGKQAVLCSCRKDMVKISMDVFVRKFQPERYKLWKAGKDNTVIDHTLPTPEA
Procedure: (§2) To investigate if H3(1–24)K9me3-T11(ph) could bind to the enzyme and act as an inhibitor, a competition experiment with H3(1–24)K9me3 was carried out.
as §1

cc-KDM4A = test: MALDI-TOF-MS demethylation, truncated KDM4A; type: biochemical, human
Procedure: as §1
(§3) The reaction mixture was diluted 1: 9 with a saturated solution of α-cyano-4-hydroxycinnamic acid (Aldrich) in a mixture of 65 % acetonitrile and 35 % MilliQ water containing 0.1 % TFA. 1 µl of the sample was spotted onto the target and air dried. The MALDI-TOF MS was carried out on an Ultraflex TOF/TOF (Bruker) operated in positive ion mode with an Ion source voltage of 25 kV, a lens voltage of 7.5 kV and a reflector voltage of 26.3 kV. The system was run in deflection mode with a mass suppression of 500 Da. […]

human cc-KDM4C [2] = molecular target: T1, human cc-KDM4C; test: competition experiment H3(1–24)K9me3-T11(ph) with H3(1–24)K9me3, truncated KDM4C; type: biochemical
Procedure: as §2, §1

cc-KDM4C = test: MALDI-TOF-MS demethylation, truncated KDM4C; type: biochemical, human
Procedure: as §1, §3

[3] = SD by propagation of errors, unit: (min^−1 * µM^−1) * 10^3
[4] = cc-KDM4A, H3(1–24)K9me3T11(ph) then H3(1–24)K9me3*
[5] = cc-KDM4C, H3(1–24)K9me3T11(ph) then H3(1–24)K9me3*

H3(1–24)K9me3T11(ph): H3(1–24)K9me3 with phosphorylation of threonine 11
demethylation / catalytic activity (in words) (human cc-KDM4C [1]): no detectable turnover | competition / inhibition (in words) (human cc-KDM4A; competition with H3(1–24)K9me3, results not shown, enzyme not named, cc-KDM4A in Table 1): does not act as an inhibitor | demethylation by MALDI-TOF-MS (in words) (cc-KDM4A): no detectable turnover | competition / inhibition (in words) (human cc-KDM4C [2]; competition with H3(1–24)K9me3, results not shown, enzyme not named, cc-KDM4C in Table 1): does not act as an inhibitor | demethylation by MALDI-TOF-MS (in words) (cc-KDM4C): no detectable turnover

H3(1–24)K9me3: truncated histone tail, 24 first amino acids from the N-terminus of H3, trimethylated lysine 9; control peptide
K m (human cc-KDM4C [1]): 55±11 | k cat (human cc-KDM4C [1]): 0.5±0.04 | k cat /K m (human cc-KDM4C [1]; [3]): 9±1 | k cat /K m (human cc-KDM4C [1]; figures): 9 ± 1 min^-1 * μM^-1 * 10^3 | K m (human cc-KDM4A; [4]): 132±23 | k cat (human cc-KDM4A; [4]): 1.4±0.08 | k cat /K m (human cc-KDM4A; cc-KDM4A, H3(1–24)K9me3T11(ph) then H3(1–24)K9me3*, unit: (min^−1 * µM^−1) * 10^3): 10.6±1.9 | K m (human cc-KDM4C [2]; [5]): 43±22 | k cat (human cc-KDM4C [2]; [5]): 0.3±0.05

H3(1–24)K9me2: truncated histone tail, 24 first amino acids from the N-terminus of H3, dimethylated lysine 9
K m (human cc-KDM4C [1]): 79±10 | k cat (human cc-KDM4C [1]): 0.1±0.01 | k cat /K m (human cc-KDM4C [1]; [3]): 1.3±0.2

H3(1–24)K4me3K9me3: bis-tri-methylated substrate, trimethylated K4 in combination with H3K9me3
K m (human cc-KDM4C [1]): 70±13 | demethylation / catalytic activity (in words) (human cc-KDM4C [1]): an increase of the enzymatic catalytic efficiency | k cat (human cc-KDM4C [1]): 1.2±0.1 | k cat /K m (human cc-KDM4C [1]; [3]): 17±2 | fold increase in k cat/K m (human cc-KDM4C [1]; compared to H3(1–24)K9me3): 2 fold | k cat /K m (human cc-KDM4C [1]; figures): 17 ± 2 min^-1 * μM^-1 * 10^3 | demethylation by MALDI-TOF-MS (in words) (cc-KDM4A): PTM product between mark K4me3 and mark K9me3 | demethylation by MALDI-TOF-MS (in words) (cc-KDM4C): PTM product between mark K4me3 and mark K9me3
